How the values were obtained:
T-cadherin [1] = target: T1, T-cadherin (mouse, UniProt Q9WTR5 139-693); experiment: flow cytometry titration on 293-EBNA cells transfected with pGF-T-cadherin; half-maximal concentration divided by the molecular weight
T1 construct: whole, on cells; also called adiponectin receptor; pGF-T-cadherin
T1 sequence (looked up): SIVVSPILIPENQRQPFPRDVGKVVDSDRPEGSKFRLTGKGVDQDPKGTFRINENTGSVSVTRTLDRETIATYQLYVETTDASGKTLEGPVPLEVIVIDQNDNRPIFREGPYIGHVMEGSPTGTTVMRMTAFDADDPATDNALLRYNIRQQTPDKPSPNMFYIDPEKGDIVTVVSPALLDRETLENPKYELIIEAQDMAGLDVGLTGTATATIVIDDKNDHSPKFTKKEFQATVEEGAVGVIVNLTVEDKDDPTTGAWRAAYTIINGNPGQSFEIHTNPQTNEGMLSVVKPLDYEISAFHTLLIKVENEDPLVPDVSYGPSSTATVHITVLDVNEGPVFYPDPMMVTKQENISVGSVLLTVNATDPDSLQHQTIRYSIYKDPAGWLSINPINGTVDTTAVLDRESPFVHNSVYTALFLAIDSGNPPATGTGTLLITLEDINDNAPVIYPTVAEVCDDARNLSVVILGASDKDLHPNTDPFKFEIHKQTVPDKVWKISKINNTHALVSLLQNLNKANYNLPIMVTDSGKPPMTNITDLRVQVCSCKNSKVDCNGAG
Protocol: (§1) 293-EBNA cells were transfected with pGF-T-cadherin. After two days the cells were harvested and stained with decreasing amounts of Acrp30-FLAG-C (50, 25, 12.5, 6.3, 3.1, 1.6, 0.8, 0.4 and 0 μg/ml) as described in example 6. To evaluate the dissociation constant, the geometric mean fluorescence (GMFl) of the GFP positive population was determined using FACS Winmdi software. The GMFl was then normalized as follows: (GMFL of the sample minus GMFl of samples stained with secondary reagents only) divided by maximal GMFL. The protein concentration is shown on the X axis and the normalised GMFL is shown on the Y axis.
(§2) In order to determine the dissociation constant of the adiponectin-T-cadherin interaction, 293-EBNA cells were transfected with pGF-T-cadherin as described in example 6. […] The cells were then analysed by FACS using a FACS Calibur (Becton Dickinson). To determine the binding affinity, the geometric mean fluorescence of the GFP positive population was determined using FACS WINmdi software. The geometric mean fluorescence was then normalised by deducing the mean fluorescence of the sample which was stained with the secondary reagents only from the different samples and then all the values were divided by the maximal fluorescence. The normalised values for the mean fluorescence were than plotted against the concentration of Acrp30-FLAG-C. […]

T-cadherin [2] = target: T1, T-cadherin; experiment: flow cytometry titration on 293-EBNA cells transfected with pGF-T-cadherin; normalised geometric mean fluorescence of the GFP positive population
Protocol: as §1, §2

B1: Acrp30-FLAG-C (ligand)
chain: DADPEDDVTTTEELAPALVPPPKGTCAGWMAGIPGHPGHNGTPGRDGRDGTPGEKGEKGDAGLLGPKGETGDVGVTGAEGPRGFPGTPGRKGEPGEAAYMYRSAFSVGLETRVTVPNVPIRFTKIFYNQQNHYDGSTGKFYCNIPGLYYFSYHITVYMKDVKVSLFKKDKAVLFTYDQYQEKNVDQASGSVLLHLEVGDQVWLQVYGDGDHNGLYADNVNDSTFTGFLLYHDTNSLDDYKDDDDK
notes: The molecular weight used for the Kd is 26546 g/mol (monomer); Three bands on SDS-PAGE from differential glycosylation; also called Adiponectin-bait Acrp30-FLAG-C; adiponectin
T-cadherin [1]
  Kd: 83 nM
T-cadherin [2]
  EC50: 2.2 µg/mL

— US20060286035A1 (CYTOS BIOTECHNOLOGY, published 2006)
